The values that follow come from publication doi:10.1101/2023.03.28.534543.

Common to all, as to assay: SEC
Assay [1] deals with CdpB1 from Archaeoglobus fulgidus (Archaeoglobus fulgidus).
Assay [2] deals with CdpB2 from Archaeoglobus fulgidus (Archaeoglobus fulgidus).
Assay [3] concerns the target SepF from Archaeoglobus fulgidus (Archaeoglobus fulgidus).

In turn, “CdpB1 from Archaeoglobus fulgidus (natural protein)” gave a stoichiometry N in assay [1] of 2. As for “CdpB2 from Archaeoglobus fulgidus (natural protein)”, in assay [2], the stoichiometry N is 2. “SepF from Archaeoglobus fulgidus (natural protein)”: the stoichiometry N in assay [3] was determined as 2.
